Test results taken from patent EP2058006A1.

Columns and labels:
[1] = target: CC-chemokine receptor CCR5 on the cell surface (UniProt P51681); experiment: flow cytometry on L1.2-CCR5+ cells, saturating mAb, PE anti-mouse IgG
[2] = target: CC-chemokine receptor CCR5 on the cell surface (UniProt P51681)
[3] = target: CC-chemokine receptor CCR5 on the cell surface (UniProt P51681); experiment: flow cytometry on PHA/IL-2-stimulated PBMC
[4] = target: CC-chemokine receptor CCR5 on the cell surface (UniProt P51681); experiment: cell-based or functional assay
[5] = target: CC-chemokine receptor CCR5 on the cell surface (UniProt P51681); experiment: flow cytometry on PHA/IL-2-stimulated PBMC, mean fluorescence intensity

Chain of UniProt P51681 (P51681 whole entry): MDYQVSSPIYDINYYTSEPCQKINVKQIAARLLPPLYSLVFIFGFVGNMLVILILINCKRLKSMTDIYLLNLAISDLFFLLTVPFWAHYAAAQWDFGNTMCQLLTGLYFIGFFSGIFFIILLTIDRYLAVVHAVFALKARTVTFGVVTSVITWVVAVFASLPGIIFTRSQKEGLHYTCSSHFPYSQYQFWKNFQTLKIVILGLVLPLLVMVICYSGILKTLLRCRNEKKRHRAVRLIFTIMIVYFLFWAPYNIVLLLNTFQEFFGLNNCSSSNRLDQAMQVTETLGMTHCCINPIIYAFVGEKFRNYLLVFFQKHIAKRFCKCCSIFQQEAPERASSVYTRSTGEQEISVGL

| Substance | % of L1.2-CCR5+ cells stained [1] [%] | IC50 [2] [µg/mL] | % of PBMC stained [3] [%] | IC50, inhibition of JR-FL entry (luciferase reporter virus, U87MG-CD4+CCR5+ cells) [4] [µg/mL] | IC50, inhibition of cell-cell fusion (RET assay, PM1 and HeLa-EnvJR-FL+ cells) [4] [µg/mL] | K (equal to the IC50), inhibition of cell-cell fusion, median effect fit (RET assay) [4] [µg/mL] | fold difference in m.f.i. against PA9 [5] [fold] | IC50 for inhibition of RANTES-induced calcium influx in L1.2-CCR5+ cells [4] [µg/mL] | ratio of the PA14 IC50 to the 2D7 IC50, RANTES-induced calcium influx [4] [fold] |
| --- | --- | --- | --- | --- | --- | --- | --- | --- | --- |
| anti-CCR5 mAb 2D7 (Pharmingen) (antibody) | > 90 | 1.38 | > 20 | 0.026 | 1.6 | 0.36 |  |  |  |
| anti-CCR5 monoclonal antibody PA14 (ATCC Accession No. HB-12610) | > 90 | 1.58 | > 20 | 0.024 | 1.7 |  | 7 | 50 | 8 |
